Source: the DeepSol protein solubility set

Assay: soluble on expression in E. coli; label from the status in PepcDB or PDB records
In the case of “MDFNLNDEQELFVAGIRELMASENWEAYFAECDRDSVYPERFVKALADMGIDSLLIPEEHGGLEAGFVTVAAVWMELGRLGAPTYVLYQLPGGFNTFLREGTQEQIDKIMAFRGTGKQMWNSAITEPGAGSDVGSLKTTYTRKNGKVYLNGSKCFITSSAYTPYIVVMARDGASPDKPVYTEWFVDMSKAGIKVNKLEKLGLRMDSCCEITFDDVELDEKDMFGREGNGFNRVKEEFDHERFLVALTNYGTAMCAFEDAARYANQRVQFGEAIGRFQLIQEKFAHMAIKLNSMKNMLLEAAWKADNGTITSGDAAMCKYFCANAAFEVVDTAMQVLGGVGIAGNHRITRFWRDLRVDRVSGGSDEMQILTLGRAVLKQYR”, the “soluble on expression in E. coli” value is reported as “not soluble”.
In the case of “MTESEVRKLLRRMKELDSQTAFRAFYDMTYDRLYRIAYYYVKREEWSQEIVLDVFLKLWEQRSSLPEVKSIEDYCFILVKNASLNYLEKENRRTTVSTETLPEPEAQSDSPEESMISEELFAIYVKALDRLPERCREVFIRIREEKQSYAQVAEELGISTKTVDAQLQKATIRLKEAISMVNNDR”, the “soluble on expression in E. coli” value is reported as “not soluble”.
In the case of “MDYSEIMVRHGELSTKGKNRMRFINKLKNNIQDVLAPFPAITVRSDRDRTHVSLNGTDYQPIVEALKLVFGVQALSPVYKLEKSVPLLVTAVQDIMTSLYRDGLTFKIATKRSDHAFELDSRELNSLLGGAVFEVLPNIQAQMKHPDVTLKVEIRDEAAYISYEEIKGAGGLPVGTSGKGMLMLSGGIDSPVAGYLALKRGLDIEVVHFASPPYTSPGALAKAQDLTRRLTRFGGNIQFIEVPFTEIQEEIKNKAPEAYLMTLTRRFMMRITDAIREQRKGLVIVNGESLGQVASQTLESMQAINAVTSTPIIRPVVTMDKLEIIEMAQAIDTFDISIQPFEDCCTIFAPDRPKTNPKLGNAEKYEECFDIDGLVQRAVSGIVVTEITPEIVNDEVENLIDALL”, the “soluble on expression in E. coli” value is reported as “not soluble”.
With “MGCGLRKLEDPDESSPGKIFSTLKRPQVETKTEFAYEYALLDFTLQASTNPDVIKINSVLDIVAKVEDYYLKGYVVGAIHPVIQPVGQRKHLPASHLYRAVLSRLKLSPKHSAAGGQRRARLVMEECPLTCEAQANDAAKELMDKINAAAKRGMKFVGLVSQCYLPSMHCNGASHDGVAESGLHVRQDSQDNCKGWNEGALGGHLSESGVEEEPQHESGQHQTERNSSPSYANPKRGEAPDGKLYMVFNAFEEDAASWAYQEGVLSMKVTRKGAVISALDANWLELTTFYYKQGFSLIDSFVCWETPKVAKLEAFQLSVSDKLPKGKQKYSFQSLSGIPASGLA” the “soluble on expression in E. coli” value was “soluble”.
In the case of “VSQRPFRDRVLHLLALRPYRKAELLLRLQKDGLTQADKDALDGLLQQVANMSAKDGTCTLQDCMYKDVQKDWPGYSEGDQQLLKRVLVRKL”, the “soluble on expression in E. coli” value is reported as “soluble”.
For “MSLNKLEKEASVFFKKNQESVSQDFKKKVSSIEMFSTSLNSEENQSLDRLFLSETQNLSDEESYQEDVLSVKLLTSQIKAIQKQHVLLLGEKIYNARKILSKSCFSSTTFSSWLDLVFRTKSSAYNALAYYELFISLPSTTLQKEFQSIPYKSAYILAARKGDLKTKVSVIGKVCGMSNASAIRVMDQLLPSSRSKDNQRFFESDLEKNRQLSDLLVELLRIVCSGVFLSPYNENLLQQLFEVYKQKSEGHHHHHH”, the “soluble on expression in E. coli” value was “soluble”.
For “ALKQKIIGNGEKRVVTYAPTWREDDFISVGHYHFRWHFSLKKMMGLLPEDVMLLIRPHYLVTDRIDIKGFEDRVVIDSTTDMNEIYLITDLMVTDYSSVMFDFAILKRPMLFFAYDLEYYRDDLRGFYFDYYTELPGSIVTDETHLLAEIDQLLQNNFAELDPERFNKFAKRFVSWERGTAAQQVIEKINYRRDEK”, the “soluble on expression in E. coli” value was “not soluble”.
With “AERPTLPIPDLLTTDARNRIQLTIGAGQSTFGGKTATTWGYNGNLLGPAVKLQRGKAVTVDIYNQLTEETTLHWHGLEVPGEVDGGPQGIIPPGGKRSVTLNVDQPAATCWFHPHQHGKTGRQVAMGLAGLVVIEDDEILKLMLPKQWGIDDVPVIVQDKKFSADGQIDYQLDVMTAAVGWFGDTLLTNGAIYPQHAAPRGWLRLRLLNGCNARSLNFATSDNRPLYVIASDGGLLPEPVKVSELPVLMGERFEVLVEVNDNKPFDLVTLPVSQMGMAIAPFDKPHPVMRIQPIAISASGALPDTLSSLPALPSLEGLTVRKLQLSMDGGANKINGQAFDMNKPMFAAAKGQYERWVISGVGDMMLHPFHIHGTQFRILSENGKPPAAHRAGWKDTVKVEGNVSEVLVKFNHDAPKEHAYMAHCHLLEHEDTGMMLGFTVGHHHHH” the “soluble on expression in E. coli” value was “soluble”.
In the case of “MGSDKIHHHHHHMAIIKASTAASVAELTTDIDQQLPQLKAKPFSHELLTTSILTMLGTAAFVGIHHRYRKQHLADARVQDYVRGIYSQMNALQSASHSRSMLRHFRYSCQQAASTWQQAYRLPMNDKQSNSSGLATNNFSAMHTTTMLARPVCWVSGVASMPKDISLINEDNENDFGVVGIDADREVVWQTTMPERVHDIVVQPVFRYEDNTVSNHLNHRQSRDVVVMGRRPSEKFWVLDTATGQVRFAINAATNRHFYGHACYSLDGSKLYVTENDTLSLDGKIGAYAVDKGYQKIAEFDSYGIGPHELIMHPDGETLIIANGGIKTEQASREELNLDTMHPSLVYLNRHDGSLLEQITPEHNQMSVRHLAMHDDGTVMIGIQFQGEKHINVPLVLTHKRGDIKLTPLTMPNNQWQRFHQYIASVAVDSKCNLLCVTTPIGGCAAIFDLTTRALINSVSLPDCAGASIYSRKTGSGKGSVDAEQKSGFIVSDGQGQLTRLSVNDLTILDSELNSDAIAKNNTIGTDIKCHMMSFDNHLQAL”, the “soluble on expression in E. coli” value is reported as “not soluble”.
With “MQTLLLALFSLAMVQAMRDQSIAVKGRLICGDKPAANVRIKLWEEDSGPDPDDLLEAGYTDSNGEFQLSGGEAELTPIDPIFKVYHDCDDKYIPGHRKVKFLIPKSYITQGKTPKKTFDLGVLNLETIFPKEERELIVSRKRRHHPKQYINEEDSF” the “soluble on expression in E. coli” value was “not soluble”.
With “SEKVNQTFFLSHGSPTLSIDDSLEARQFFKSWTQKVLPQKPKSILVISAHWDTKFPSVNTVLRNNTIHDFSGFPDPMYKLKYEAPGAIELGKRVKELLMKEGGMKRVDEDTKRGLDHGAWVPLMLMYPEADIPICQLSVQSNQNGSYHYNMGKALASLKDEGVLIIGSGSATHNLRKLDFNITDGSPVPWALEFDHWLRDSLLQGRYGDVNEWEEKAPNAKMAHPWPEHLYPLHVVMGAAGGDAKAEQIHTSWQLGTLSYSSYSFTSSL” the “soluble on expression in E. coli” value was “soluble”.
With “MAHHHHHHMRGVSAAEIGKFRELQNHWWNPDGPLRTLHFFNPLRVKYINDTCRNFSKRSSLLASSGITPGMRILDVGCGGGILSESLVRLGGNVLGIDMCEESIAVAQQRREQVLQDVASCTLQNGAASLEYRYASLNTIAVEEKQQFDLVVASEVIEHVDDAPRFLQDLCDATKPGGLLIISTMDKSIRAAISHIAVAEYLTALVRPGTHDWSKFVPPKDLSRCALQHQVRQVDLQYIVACPNILMSLSTRQMQLAFSLSKRFDTGHYFWSGLKVTAPA” the “soluble on expression in E. coli” value was “not soluble”.
With “MSLKSILIMGGSDFIGSALAKRLIKCGYQIDILTNGKKEIDYNGFKEHLICDRKVRKDMENIITGRKYDYIYDMTAYTKEDVSNLIDFISMDNLKKYIVLSAGAVYKDSGRNIKEENEKGENENWGKYGLNKKEAEDFIINSPIPYIIIRPTYIYGENNNLYREYYFFEKIEKNEKIPVPKGKQVSNQFIYIGDLVKVLESIMKNPHVREAYNVTNPQLISWDDLIYTCGEIIGKEPIIKYVDMEKVEFRERTYFPFRNIDFNLDINKLIEHGLYIPNVLLKEGLTATYKWFSANKPKMHDRKMNKVESVMQIEGHHHHHH” the “soluble on expression in E. coli” value was “soluble”.
In the case of “MSGELSNRFQGGKAFGLLKARQERRLAEINREFLCDQKYSDEENLPEKLTAFKEKYMEFDLNNEGEIDLMSLKRMMEKLGVPKTHLEMKKMISEVTGGVSDTISYRDFVNMMLGKRSAVLKLVMMFEGKANESSPKPVGPPPERDIASLP”, the “soluble on expression in E. coli” value is reported as “soluble”.
For “GPLGSKEQGVVRKAGWLFFKPLVTLQKERKLELVARRKWKQYWVTLKGCTLLFYETYGKNSTEQNSAPRCALFAEDSIVQSVPEHPKKEHVFCLSNSCGDVYLFQATSQTDLENWVTAIHSACASLFAKKHGKEDTVRLLKSQTRSLLQKIDMDSKMKKMAELQLSVVSDPKNRKAIENQIRQWEQNLEKFHMDLFRMRCYLASLQGGELPNPKSLLAATSRPSKLALGRLGVLSVSSFHALVCSRDDSTLRKRTLSLTQRGK”, the “soluble on expression in E. coli” value was “soluble”.
